The RNAGym collection of RNA variant scans (doi:10.1073/pnas.2313332121)

B1: TPR t1 (parent)
chain: GACCAAUCUGCCCUCAGAGCUCGAGAACAUCUUCGGAUGCAGAGGAGGCAGGCUUCGGUGGCGCGAUAGCGCCAACGUCCUCAACCUCCAAUGCAUCCCACCACAUGAUGAUGCCUGAAGAGCCUUGGUUUUUUG

Variants of: B1
Experiment: polymerase ribozyme fitness, log enrichment relative to wild type (log ratio); higher = more active; in vitro selection for triplet polymerase activity
Summary of the method: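 Each subunit of a heterodimeric triplet polymerase ribozyme was represented by a PCR-built, transcribed mutant library that underwent triplicate single-round in vitro selection with frozen incubation at −7 °C. Extended constructs were recovered by gel excision, streptavidin-bead capture and RT-PCR, and Illumina sequencing of input and output libraries kept genotypes with ≥10 input reads and ≥1 read per output. Fitness is the logarithm of genotype enrichment relative to wild-type enrichment, from inverse-variance-weighted replicate averages, with a logarithm base of 2.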

| Variant | polymerase ribozyme fitness (log ratio) |
| --- | --- |
| GACCAAUUUGCCCUCAGAGCUCGAGAACAUCUUCGGAUGCAGAGGAGGCAGGCUUCUGUGGCGCGAUAGCGCCAACGUCCUCAACCUCCAAUGCAUCCCACCACAUGAUGAUGCCUGAAGAGCCUUGGUUUUUUG [C8U G57U] | -0.029 |
| GACCAAUUUGCCCUCAGAGCUCGAGAACAUCUUCGGAUGCAGAGGAGGCAGGCUUCGGUGUCGCGAUAGCGCCAACGUCCUCACCCUCCAAUGCAUCCCACCACAUGAUGAUGCCUGAAUAGCCUUGGUUUUUUG [C8U G61U A84C G120U] | 1.93 |
| GACCAAUUUGCCCUCAGAGCUCGAGAACAUCUUCGGAUGCAGAGGAGGCAGGCUUCGGUCGCGCGAUAGCGCCAACGUCCUCAACCUCCAAUGCAUCCCACCACAUGAUGAUGCCUGAAGAGCCUUGGUUUUUUG [C8U G60C] | 0.253 |
| GACCAAUUUGCCCUCAGAGCUCGAGAACAUCUUCGGAUGCAGAGGAGGCAGGCUUCGGUGGCGCGAUAGCACCAAAGUCCUCAACCUCCAAUGCAUCCCACCACAUGAUGAUGCCUGAAUAGCCUUGGUUUUUUG [C8U G71A C76A G120U] | -5.96 |
| GACCAAUUUGCCCUCAGAGCUCGAGAACAUCUUCGGAUGCAGAGGAGGCAGGCUUCGGUGGCGCGAUAGCACCAACGUCCUCAACCUCCAAUGCAUCCCACCACAUGAUGAUGCUUGAAGAGCCUUGGUUUUUUG [C8U G71A C115U] | -1.94 |
| GACCAAUUUGCCCUCAGAGCUCGAGAACAUCUUCGGAUGCAGAGGAGGCAGGCUUCGGUGGCGCGAUAGCGCCAACCUCCUCAACCUCCAAUGCAUCCCACCACAUGAUGAUGCCUGAAGAGCCUUGGUUUUUUG [C8U G77C] | -0.262 |
| GACCAAUUUGCCCUCAGAGCUCGAGAACAUCUUCGGAUGCAGAGGAGGCAGGCUUCGGUGGCGCAAUAGCGCCAACGUCCUCAACCUCCAAUGCAUCCCACCACAUGAUGAUGCCUGAAGAGCCUUGGUUUUUUG [C8U G65A] | -4.53 |
| GACCAAUUUGCCCUCAGAGCUCGAGAACAUCUUCGGAUGCAGAGGAGGCAGGCUUCGAUGGCGCGAUAGCGCCAACGUCCUCAACCUCCAAUUCAUCCCACCACAUGAUGAUGCCUUAAGAGCCUUGCUUUUUUG [C8U G58A G93U G117U G128C] | -5.28 |
| GACCAAUUUGCCCGCAAAGCUCGAGAACAUCUUCGGAUGCAGAGGAGGCAGGCUUCGGUGGCGCGAUAGCGCCAACGUCCUCAACCUCCAAUGCAUCCCACCACAUGAUGAUGCCUGAGGAGCCUUGGUUUUUUG [C8U U14G G17A A119G] | -0.996 |
| GACCAAUUUGCCCUCAGAGCUCGAGAACAUCUUCGGAUGCAGAGGAGGCAGGCUUCGGUGGCGCGAUAGCGCCAACGUCCUCAACCUCCAAUGCAUCCCACCACAUGAUGAUACCUGAAGGGCCUUGGUUUUUUG [C8U G113A A121G] | -0.604 |
| GACCAAUUUGCCCUCAGAGCUCGAGAACAUCUUCGGAUGCAGAGGAGGCAGGCUUCGGUGGCGCGAUAGCGCCAACGUCCUCAACCUCCAAUGCAUCCCACCACAUGAUGAUGCCUGAAGAGCCUUCGUUUUUUG [C8U G127C] | -1.53 |
| GACCAAUUGGCCCUCAGAGCUCGAGAACAUCUUCGGAUGCAGAGGAGGCAGGCUUCAGUGGCGCGAUAGCGCCAACGUCCUCAACCUCCAAUGCAUCCCACCACAUGAUGAUGCCUGAAGAGCCUUGGUUUUUUG [C8U U9G G57A] | -0.23 |
| GACCAAUUUGCCCACAGAGCUCGAGAACAUCUUCGGAUGCAGAGGAGGCAGGCUUCGGUGGCGCGAUAGCGAUAACGUCCUCAACCUCCAAUGCAUCCCACCACAUGAUGAUGCCUGAAGAGCCUUGGUUUUUUG [C8U U14A C72A C73U] | -2.99 |
| GACCAAUUUGCCCUCAGAGCUCGAGAACAUCUUCGGAUGCAGAGGAGGCAGGCUUCGGUGGCGCGAUAGCGCCAACGUCCUCAACCUCCAAUGCAUCCCACCACAUGAUGAUCCCUGAAGAGCCUUGGUUUUUUG [C8U G113C] | -1.19 |
| GACCAAUUUGCCCUCAGAGCUCGAGAACAUCUUCGGAUGCAGAGGAGGCAGGCUUCGGUGUCGCGAUAGCGCCAACGUCCUCAACCUCCAAUGCAUCCCACCACAUGAUGAUGCCUGAAGAGCCUUGGUUUUUUG [C8U G61U] | 0.435 |
| GACCAAUUUGCCCUCAGAGCUCGAGAACAUCUUCGGAUGCAGAGGAGGCAGGCUUCGGUGGCGCGAUAUCGCCAACGUCCUCAACCUCCAAUGCAUCCCACCACAUGAUGAUGCAUGAAGAGCCUUGGUUUUUUG [C8U G69U C115A] | 1.59 |
| GACCAAUUUGCCCUCAGAGCUCGAGAACAUCUUCGGAUGCAGAGGAGGCAGGCUUCGGUGGCGCGAUAGCUCCAACGCCCUCAACCUCCAAUGCAUCUCACCACAUGAUGAUGCCUGAUGAGCCUUGGUUUUUUG [C8U G71U U78C C98U A119U] | -1.03 |
| GACCAAUUUGCCCGCAGAGCUCGAGAACAUCUUCGGAUGCAGAGGAGGCAGGCUUCGGUAGCGCGAUAGCGCUAACGUCCUCAACCUCCAAUGCAUCCCACCACAUGAUGAUGCCUGAAGAGCCUUGGUUUUUUG [C8U U14G G60A C73U] | -0.213 |
| GACCAAUUUGCCCUCAGAGCUCGAGAACAUCUUCGGAUGCAGAGGAGGCAGUCGUCGGUGGCACGAUAGCGCCAACGUCCUCAACCUCCAAUGCAUCCCACCACAUGAUGAUGCCUGGAGAGCCUUGGUUUUUUG [C8U G52U U54G G63A A118G] | -3.26 |
| GACCAAUUUGCCCUCAGAGCUCGAGAACAUCUUCGGAUGCAGAGGAGGCAGGCUUCGGUGGCGCGAUAGCGCCAACGUCCUCAACCUCCAAUUCAUCCCACUACAUGAUGAUGCCUGAACAGCCUUGGUUUUUUG [C8U G93U C102U G120C] | -1.01 |
| GACCAAUUUGCCCUCAGAGCUCGAGAACAUCUUCGGAUGCAGAGGAGGCAGGCUUCGGUGUCGCGAUAGCGCCAACGUCCUCAACCUGCAAUGCAUCCCACCACAUGAAGAUGCCUGAAGAGCCUUGGUUUUCUG [C8U G61U C88G U109A U133C] | -4.61 |
